Data on one molecule can be found in article PMC5851990 (2018).

Experiment [1] addresses chicken Ten2^ecto P1680L mutant (residues 596-2802) (chicken, UniProt Q9DER5 596-2802, P1680L). Kind of experiment: SPR.
Experiment [2] addresses chicken Ten2^ecto wild type (residues 596-2802) (chicken, UniProt Q9DER5 596-2802). Kind of experiment: SPR. (SPR reads the build-up and loss of mass on a sensor chip optically.)

B1: mouse Lphn2^Lec (Latrophilin 2 lectin domain, residues 30-137) (domain or fragment)
chain: ALPFGLVRRELSCEGYSIDLRCPGSDVIMIESANYGRTDDKICDADPFQMENTDCYLPDAFKIMTQRCNNRTQCIVVTGSDVFPDPCPGTYKYLEVQYECVPYSKMLV
modifications: biotinylated enzymatically in vivo at a C-terminal AviTag
Usually Kd stands for the constant that tells how readily two partners part at equilibrium. Higher therefore signals a looser complex. In the case of B1, the figures for the Kd in experiment [1] and in experiment [2] were 740 nM and 790 nM, respectively.
